How the values were obtained:
[1] = biological target: T1, recombinant human syndecan-2 (human, UniProt P34741 19-144, limits assumed); assay: ELISA, peptide coated, syndecan 1 µg/mL, anti-His detection
T1 construct: Histidine tag of unstated position and length
Method: (§1) ELISA tests were performed as described above. In brief, ELISA plates were coated with 1 μg/mL laminin peptide (sequences are described in Table 1, chemically synthesized by Genscript) in PBS for 2 hrs at 37° C. 1 μg/mL of BSA served as non-binding protein control. After blocking with 2% BSA PBS-T solution, 1 μg/mL of the recombinant human syndecan-1, syndecan-2, syndecan-3, syndecan-4 (all syndecan proteins are histidine-tagged; SinoBiological) were added. Bound GF was detected with anti-histidine tag antibody (1:1000 dilution, BioLegend).

[2] = biological target: T2, recombinant human syndecan-1 (human, UniProt P18827 23-254, limits assumed); assay: as above
T2 construct: Histidine tag of unstated position and length
T2 sequence (looked up): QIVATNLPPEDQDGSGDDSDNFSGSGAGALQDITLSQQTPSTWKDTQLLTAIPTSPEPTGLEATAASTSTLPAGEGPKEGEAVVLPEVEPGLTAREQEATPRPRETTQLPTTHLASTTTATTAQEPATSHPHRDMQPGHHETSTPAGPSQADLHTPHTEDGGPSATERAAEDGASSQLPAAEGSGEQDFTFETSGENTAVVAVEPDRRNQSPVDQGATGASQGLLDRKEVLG
Method: as §1

[3] = biological target: T3, recombinant human syndecan-4 (human, UniProt P31431 19-145, limits assumed); assay: as above
T3 construct: Histidine tag of unstated position and length
T3 sequence (looked up): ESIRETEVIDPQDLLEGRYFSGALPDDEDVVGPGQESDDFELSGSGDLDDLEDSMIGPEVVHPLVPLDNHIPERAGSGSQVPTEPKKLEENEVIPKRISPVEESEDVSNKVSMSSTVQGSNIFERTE
Method: as §1

[4] = biological target: T4, vascular endothelial growth factor (VEGF)-A165 (human, UniProt P15692-4 27-191); assay: ELISA, peptide coated, GF 1 µg/mL
T4 construct: mature; Purchased in mature form, not glycosylated
Method: (§2) (A) The location of laminin-derived peptides in the LG domain of laminin α3, α4, and α5 chains. (B-F) Affinity of heparin and GFs against chemically synthesized peptides derived from the LG domain of laminin α3, α4, and α5 chains. ELISA plates were coated with 10 μg/mL laminin peptide and further incubated with (B) biotinylated heparin, (C) VEGF-A165 and VEGF-A121, (D) PlGF-2 and PlGF-1, (E) PDGF-BB, or (F) FGF-2. Concentrations were 1 μg/mL for GFs and 10 μg/mL for heparin. Bound heparin was detected with streptavidin, and bound GFs with a specific antibody for each GF (n=4, mean±SEM). Statistical analyses were done using the Mann-Whitney U test by comparing the signals obtained from the laminin peptide- and the BSA-coated wells. *p<0.05, **p<0.01.
(§3) ELISA tests were performed as described above. […] 1 μg/mL of BSA served as non-binding protein control. After blocking with 2% BSA PBS-0.05% Tween 20 (PBS-T) solution, 1 μg/mL of the recombinant human proteins (VEGF-A121, VEGF-A165, PlGF-1, PlGF-2, PDGF-BB or FGF-2) or 10 μg/mL of biotinylated heparin (Sigma-Aldrich) were added. Bound GF was detected with biotinylated antibodies for human VEGF, PlGF, PDGF-BB, or FGF-2 (R&D Systems). The antibodies were detected by streptavidin-HRP (R&D Systems).

[5] = biological target: T5, placental growth factor (PlGF)-2 (human, UniProt P49763-3 19-170); assay: ELISA, peptide coated, GF 1 µg/mL
T5 construct: mature; Purchased in mature form
T5 sequence (looked up): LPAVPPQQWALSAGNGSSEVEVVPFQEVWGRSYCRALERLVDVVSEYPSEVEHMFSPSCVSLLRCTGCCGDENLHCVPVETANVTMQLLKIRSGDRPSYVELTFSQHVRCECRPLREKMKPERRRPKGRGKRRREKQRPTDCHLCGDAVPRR
Method: as §2, §3

[6] = biological target: T6, vascular endothelial growth factor (VEGF)-A121 (human, UniProt P15692-9 27-147); assay: ELISA, peptide coated
T6 construct: mature; Purchased in mature form, not glycosylated
T6 sequence (looked up): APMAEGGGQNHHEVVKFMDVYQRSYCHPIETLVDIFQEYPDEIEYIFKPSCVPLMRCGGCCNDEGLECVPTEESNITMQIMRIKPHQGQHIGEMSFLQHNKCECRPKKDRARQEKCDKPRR
Method: as §2, §3

[7] = biological target: T7, placental growth factor (PlGF)-1 (human, UniProt P49763-2 19-149); assay: ELISA, peptide coated
T7 construct: mature; Purchased in mature form
T7 sequence (looked up): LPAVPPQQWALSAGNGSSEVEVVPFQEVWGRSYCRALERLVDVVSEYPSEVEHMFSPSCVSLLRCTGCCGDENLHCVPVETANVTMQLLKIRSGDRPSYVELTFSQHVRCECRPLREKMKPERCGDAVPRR
Method: as §2, §3

[8] = biological target: T8, platelet-derived growth factor (PDGF)-BB (human, UniProt P01127 82-190); assay: ELISA; peptide coated (10 µg/mL, legend paragraph 53), GF in solution, BSA-coated wells as control [panel E]
T8 construct: mature; Purchased in mature form
T8 sequence (P01127 82-190): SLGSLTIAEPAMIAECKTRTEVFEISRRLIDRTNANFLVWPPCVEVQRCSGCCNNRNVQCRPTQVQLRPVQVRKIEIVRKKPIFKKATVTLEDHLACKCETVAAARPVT
Method: as §2, §3

[9] = biological target: T9, fibroblast growth factor (FGF)-2 (human, UniProt P09038 143-288); assay: ELISA; peptide coated (10 µg/mL, legend paragraph 53), 1 µg/mL FGF-2 in solution, BSA-coated wells as control [panel F]
T9 construct: mature; Purchased in mature form
T9 sequence (P09038 143-288): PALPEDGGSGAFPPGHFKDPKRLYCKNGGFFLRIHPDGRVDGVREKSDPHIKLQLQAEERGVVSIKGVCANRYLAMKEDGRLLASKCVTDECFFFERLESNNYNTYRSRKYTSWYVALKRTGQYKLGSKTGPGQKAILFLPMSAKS
Method: as §2, §3

[10] = biological target: T7, placental growth factor (PlGF)-1; assay: ELISA; growth factors coated at 100 nM, FabCol variants at 100 nM in solution, HRP-anti-human Fab [panel F]
bovine type I collagen = biological target: T10, bovine type I collagen (bovine, UniProt P02453 178-1191; P02465 89-1102); assay: ELISA, collagen I coated, 0.01-30 nM binder
T10 construct: PureCol, Advanced BioMatrix; coated on the plate; also called collagen I; PureCol
T10 sequence (P02453 178-1191, chain 1 of 2): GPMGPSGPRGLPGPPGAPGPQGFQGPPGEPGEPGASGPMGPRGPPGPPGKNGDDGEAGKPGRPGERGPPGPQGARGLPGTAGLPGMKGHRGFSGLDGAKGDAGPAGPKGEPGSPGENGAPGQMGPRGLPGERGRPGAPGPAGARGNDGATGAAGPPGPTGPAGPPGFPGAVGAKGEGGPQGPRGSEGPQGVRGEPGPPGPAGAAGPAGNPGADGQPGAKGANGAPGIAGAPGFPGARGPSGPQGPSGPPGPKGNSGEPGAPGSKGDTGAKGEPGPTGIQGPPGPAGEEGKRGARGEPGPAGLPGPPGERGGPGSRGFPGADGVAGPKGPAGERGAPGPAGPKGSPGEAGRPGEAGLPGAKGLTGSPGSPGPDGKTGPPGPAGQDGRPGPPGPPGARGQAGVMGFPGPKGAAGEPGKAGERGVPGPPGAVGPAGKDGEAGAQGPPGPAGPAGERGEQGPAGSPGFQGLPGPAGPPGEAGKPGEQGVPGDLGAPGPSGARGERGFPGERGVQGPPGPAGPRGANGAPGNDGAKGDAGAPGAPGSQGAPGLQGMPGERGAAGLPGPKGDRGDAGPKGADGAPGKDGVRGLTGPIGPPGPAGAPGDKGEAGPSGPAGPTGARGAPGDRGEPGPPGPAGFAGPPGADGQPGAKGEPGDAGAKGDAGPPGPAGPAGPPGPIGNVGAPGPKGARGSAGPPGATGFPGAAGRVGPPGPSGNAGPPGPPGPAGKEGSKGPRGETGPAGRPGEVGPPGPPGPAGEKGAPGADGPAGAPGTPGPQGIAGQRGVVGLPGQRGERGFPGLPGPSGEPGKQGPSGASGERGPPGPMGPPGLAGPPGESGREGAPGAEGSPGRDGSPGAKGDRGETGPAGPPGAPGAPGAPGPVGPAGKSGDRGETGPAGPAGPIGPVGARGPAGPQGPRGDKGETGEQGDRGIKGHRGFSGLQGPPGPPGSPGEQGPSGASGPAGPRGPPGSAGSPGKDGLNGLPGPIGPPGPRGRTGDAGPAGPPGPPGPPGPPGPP
T10 sequence (P02465 89-1102, chain 2 of 2): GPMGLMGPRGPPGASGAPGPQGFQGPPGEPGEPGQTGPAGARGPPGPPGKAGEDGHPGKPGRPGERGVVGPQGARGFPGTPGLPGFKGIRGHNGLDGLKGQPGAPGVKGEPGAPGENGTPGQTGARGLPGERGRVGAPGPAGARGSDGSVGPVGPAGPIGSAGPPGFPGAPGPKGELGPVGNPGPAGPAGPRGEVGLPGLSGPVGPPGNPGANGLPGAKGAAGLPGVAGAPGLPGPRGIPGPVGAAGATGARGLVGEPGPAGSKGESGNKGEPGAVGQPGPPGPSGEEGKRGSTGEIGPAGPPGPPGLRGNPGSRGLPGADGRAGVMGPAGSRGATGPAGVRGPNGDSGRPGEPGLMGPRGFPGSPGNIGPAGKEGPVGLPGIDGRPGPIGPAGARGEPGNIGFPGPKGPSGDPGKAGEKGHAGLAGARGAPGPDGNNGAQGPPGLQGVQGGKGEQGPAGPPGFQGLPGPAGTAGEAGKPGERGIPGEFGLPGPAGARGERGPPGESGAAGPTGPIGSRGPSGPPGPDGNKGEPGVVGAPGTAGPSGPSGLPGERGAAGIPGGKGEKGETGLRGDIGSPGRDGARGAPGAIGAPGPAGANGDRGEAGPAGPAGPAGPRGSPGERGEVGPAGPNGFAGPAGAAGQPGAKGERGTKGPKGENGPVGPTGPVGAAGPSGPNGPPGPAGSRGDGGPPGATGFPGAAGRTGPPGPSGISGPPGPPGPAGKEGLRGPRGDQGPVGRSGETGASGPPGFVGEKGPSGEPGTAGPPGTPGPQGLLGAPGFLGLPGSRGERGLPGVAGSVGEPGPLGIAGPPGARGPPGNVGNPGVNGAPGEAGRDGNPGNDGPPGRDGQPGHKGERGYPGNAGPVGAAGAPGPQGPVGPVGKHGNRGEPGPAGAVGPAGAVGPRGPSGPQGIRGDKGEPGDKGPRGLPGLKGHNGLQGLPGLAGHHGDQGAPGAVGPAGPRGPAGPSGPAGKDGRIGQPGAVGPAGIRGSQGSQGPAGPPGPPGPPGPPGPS
Method: ELISA plates (NUNC MaxiSorp, ThermoFisher Scientific) were coated overnight with 10 μg/mL of bovine type I collagen (PureCol, Advanced BioMatrix, San Diego CA, USA) at room temperature. The plate was further blocked using 2% bovine serum albumine (BSA) for 2 h at room temperature. […] The plate was washed thrice in PBST, and an horseradish peroxidase-conjugated anti-human Fab antibody (Jackson ImmunoResearch,) was used to detect bound FabCol variants. […] Absorbance at 450 nm was read using […], and corrected using the absorbance at 570 nm. Curve fits and dissociation constant KD were computed using Prism (GraphPad Software Inc., USA).

[11] = biological target: T4, vascular endothelial growth factor …; assay: ELISA; growth factors coated at 100 nM, FabCol variants at 100 nM in solution, HRP-anti-human Fab [panel F]
[12] = biological target: T5, placental growth factor (PlGF)-2; assay: as above
[13] = biological target: T8, platelet-derived growth factor (PDGF)-BB; assay: as above
recombinant human BMP-2 = biological target: T11, recombinant human BMP-2 (human, UniProt P12643 283-396); assay: ELISA, rhBMP-2 coated 50 nM, binder 50 nM
T11 construct: also called rhBMP-2
T11 sequence (P12643 283-396 limits assumed): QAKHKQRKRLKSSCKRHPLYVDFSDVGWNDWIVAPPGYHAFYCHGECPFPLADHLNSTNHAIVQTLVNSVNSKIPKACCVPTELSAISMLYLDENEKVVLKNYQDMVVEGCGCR

[14] = biological target: T5, placental growth factor (PlGF)-2; assay: ELISA; peptide coated (10 µg/mL, legend paragraph 53), GF in solution, BSA-coated wells as control [panel D]
Method: as §2, §3

T1 sequence (P34741 19-144 limits assumed): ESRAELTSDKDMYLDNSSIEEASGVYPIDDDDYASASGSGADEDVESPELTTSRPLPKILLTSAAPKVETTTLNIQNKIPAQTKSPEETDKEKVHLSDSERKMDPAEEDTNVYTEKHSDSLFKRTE

Question: Does TPGLGPRGLQATARKASRRSRQPARHPACML (Chemically synthesized (Genscript)) [laminin α5 3300-3330 peptide (Linker)] bind [1]?
Answer: Result: binds

Question: Does TPGLGPRGLQATARKASRRSRQPARHPACML (Chemically synthesized (Genscript)) [laminin α5 3300-3330 peptide (Linker)] bind [2]?
Answer: Result: binds

Question: Does TPGLGPRGLQATARKASRRSRQPARHPACML (Chemically synthesized (Genscript)) [laminin α5 3300-3330 peptide (Linker)] bind [3]?
Answer: Result: binds

Question: Does TPGLGPRGLQATARKASRRSRQPARHPACML (Chemically synthesized (Genscript)) [laminin α5 3300-3330 peptide (Linker)] bind [4]?
Answer: Result: binds

Question: Does TPGLGPRGLQATARKASRRSRQPARHPACML (Chemically synthesized (Genscript)) [laminin α5 3300-3330 peptide (Linker)] bind [5]?
Answer: Result: binds

Question: Does TPGLGPRGLQATARKASRRSRQPARHPACML (Chemically synthesized (Genscript)) [laminin α5 3300-3330 peptide (Linker)] bind [6]?
Answer: Result: no binding (tested: 1 µg/mL)

Question: Does TPGLGPRGLQATARKASRRSRQPARHPACML (Chemically synthesized (Genscript)) [laminin α5 3300-3330 peptide (Linker)] bind [7]?
Answer: Result: no binding (tested: 1 µg/mL)

Question: Does TPGLGPRGLQATARKASRRSRQPARHPACML (Chemically synthesized (Genscript)) [laminin α5 3300-3330 peptide (Linker)] bind [8]?
Answer: Result: no binding (tested: 1 µg/mL PDGF-BB (single concentration))

Question: Does TPGLGPRGLQATARKASRRSRQPARHPACML (Chemically synthesized (Genscript)) [laminin α5 3300-3330 peptide (Linker)] bind [9]?
Answer: Result: binds

B1: FabCol-LamLG4 recombinant fusion protein (Fab)
light: EIVLTQSPGTLSLSPGERATLSCRASQSVSSSYLAWYQQKPGQAPRLLIYGASSRATGIPDRFSGSGSGTDFTLTISRLEPEDFAVYYCQQAIGFPQTFGQGTKVEIKRTVAAPSVFIFPPSDEQLKSGTASVVCLLNNFYPREAKVQWKVDNALQSGNSQESVTEQDSKDSTYSLSSTLTLSKADYEKHKVYACEVTHQGLSSPVTKSFNRGEC
heavy: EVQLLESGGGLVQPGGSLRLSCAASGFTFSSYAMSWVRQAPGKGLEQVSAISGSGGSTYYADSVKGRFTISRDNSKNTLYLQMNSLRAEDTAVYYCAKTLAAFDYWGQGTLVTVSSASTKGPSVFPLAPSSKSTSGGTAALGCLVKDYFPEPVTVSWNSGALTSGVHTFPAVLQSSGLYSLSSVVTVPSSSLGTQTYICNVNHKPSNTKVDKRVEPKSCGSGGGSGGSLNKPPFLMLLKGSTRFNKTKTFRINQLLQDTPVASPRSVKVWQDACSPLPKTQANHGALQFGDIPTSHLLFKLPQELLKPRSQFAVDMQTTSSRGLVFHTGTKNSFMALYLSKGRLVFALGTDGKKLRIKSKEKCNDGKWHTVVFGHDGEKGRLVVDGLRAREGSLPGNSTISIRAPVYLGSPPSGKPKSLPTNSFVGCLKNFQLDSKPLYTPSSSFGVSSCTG
Question: What does the source list for B1?
Answer: binding result [10]: no binding (tested: 100 nM (single concentration)); Kd (bovine type I collagen): ~2.3 nM; binding result [11]: binds; binding result [12]: binds; binding result [13]: binds; binding result (recombinant human BMP-2): binds

Question: Does KNSFMALYLSKGR (Chemically synthesized (Genscript)) [laminin α3 3031-3043 peptide (LG4)] bind [4]?
Answer: Result: binds

Question: Does KNSFMALYLSKGR (Chemically synthesized (Genscript)) [laminin α3 3031-3043 peptide (LG4)] bind [14]?
Answer: Result: no binding (tested: 1 µg/mL PlGF-2 (single concentration))

Question: Does KNSFMALYLSKGR (Chemically synthesized (Genscript)) [laminin α3 3031-3043 peptide (LG4)] bind [6]?
Answer: Result: no binding (tested: 1 µg/mL)

Question: Does KNSFMALYLSKGR (Chemically synthesized (Genscript)) [laminin α3 3031-3043 peptide (LG4)] bind [7]?
Answer: Result: no binding (tested: 1 µg/mL)

Question: Does KNSFMALYLSKGR (Chemically synthesized (Genscript)) [laminin α3 3031-3043 peptide (LG4)] bind [8]?
Answer: Result: no binding (tested: 1 µg/mL PDGF-BB (single concentration))

Source: US20240092867A1 (UNIVERSITY OF CHICAGO, published 2024)
